These results are taken from the supplement of paper PMC12455559.

± gives the standard deviation of the averaged measurements. Some results are limits rather than exact numbers.

Series [1] is described as follows: melting temperature (DSF); higher = more thermostable. The essentials:
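Enzymes made in E. coli C41(DE3) were nickel-bead purified and cut free with SUMO protease before testing. Differential scanning fluorimetry gave each melting temperature. For this, 5 μL 5X Sypro Orange was added to 45 μL enzyme (0 to 0.3 mg/mL) in sealed PCR plates, and a Bio-Rad CFX96 read fluorescence from 25 °C over 250 cycles of 0.3 °C each, ramping at 0.3 °C/s.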

A short description of series [2]: purified protein yield per well (BCA); higher = higher soluble expression. A digest of the protocol:
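Candidate enzymes were produced in E. coli C41(DE3) grown in 2 mL autoinduction cultures containing 100 µg/mL kanamycin, first at 37 °C for 2 h and then at 18 °C for 40 h. After cell lysis, protein was captured on Ni-charged magnetic beads and freed by SUMO protease cleavage on an OT-2 robot. Purified protein yield per well was read with the Pierce Rapid Gold BCA kit. Values under 25 ug (0.1 mg/mL) fall below the detection threshold.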

Series [3] in a line: PET hydrolysis, aromatic products released after 48 h (umol product/mg enzyme); higher = more PET depolymerization activity. A digest of the protocol:
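PET hydrolysis activity was taken as the aromatic product in the supernatant and expressed per mg enzyme. This product was measured by absorbance at 260 and 280 nm against buffer blanks. Each reaction held 5 μg (50 μL) of tagless, SUMO-cleaved candidate enzyme purified on nickel beads, plus 3.5 mg amorphous PET film or crystalline PET powder in 450 μL buffer: 50 mM NaCitrate (pH 4.5, 5.5), 50 mM NaPhosphate (pH 6.5, 7.5) or glycine (pH 8.5). Plates were sealed and left 48 h at 40 or 60 °C without shaking.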

[4] abbreviates: substrate: cryPow, 40 °C, pH 4.5.
Where [5] appears, read: substrate: cryPow, 40 °C, pH 5.5.
The mark [6] stands for this setting: substrate: cryPow, 40 °C, pH 6.5.
[7] abbreviates: substrate: cryPow, 40 °C, pH 7.5.
Setting [8] is: substrate: cryPow, 60 °C, pH 4.5.
The mark [9] stands for this setting: substrate: cryPow, 60 °C, pH 5.5.
The mark [10] stands for this setting: substrate: cryPow, 60 °C, pH 6.5.
Where [11] appears, read: substrate: cryPow, 60 °C, pH 7.5.

As for “ADNPYQRGPDPTRTSVTAVNGPFANTSVSVPTGYGFNGGRIYYPTDTSQGTFGAIAISPGYTALFSAELAWMGPWLASHGFVVIGIETNSRNDFDTARGTQLLAALDYLTQQSPVRDRVDPTRLAVAGHSMGGGGALSAAIRRSSLKAVVGIAPYSPSSNLANDRVPTMIFSGQADTVVTPSYATGLYNSLPSTTESVYLEVAGADHGFMVGRSNPVMVRTMLPFVKMFVDNDARYSQFLCPLLDNSGVVTYRSTCPLLPSTPTTPTPTPTDPTTPTPTPTVPPGSASQIVGTQSGRCIDVPNASRTNGTRVQLYDCNRQTNQAWTYTSGKQLQVYGNMCLDAAGTGNGAAVQIYSCHSQTNQQWNVNSNGTISNVQSGRCLDVWSTANGAQIQLYDCHSQTNQQFRVTPLA [ESM062]”, the melting temperature in series [1] is 62.5 C. Besides, the “purified protein yield per well” value in series [2] was 135 µg. Besides, the PET hydrolysis in series [3] (setting [4]) was 11; in series [3] (setting [5]), 27; in series [3] (setting [6]) it was 33; in series [3] (setting [7]), 24; in series [3] (setting [8]), under 3; in series [3] (setting [9]), 4. The figures for the PET hydrolysis in series [3] (setting [10]) and in series [3] (setting [11]) were 4 and under 3, respectively.
In the case of “ADNPYQRGPDPTRTSVTAVNGPFANTSVSVPTGYGFNGGRIYYPTDTSQGTFGAIAISPGYTALFSAELAWMGPWLASHGFVVIGIETNSRNDFDTARGTQLLAALDYLTQQSPVRDRVDPTRLAVAGHSMGGGGALSAATRRSSLKAAVGIAPYSPSSNLANDRVPTMVFAGQADTVVTPSYATGLYNSLPATTESAYLEVAGADHGFMVGRSNPVLVRTMLPFVKMFVDNDARYSQFLCPLLDSSGVVTYRSTCPLLPSTPTTPTATPTNTPTPTASPTVPPTSASQIVGTQSGRCVDVPNASRTNGTRVTLYDCNRQINQTWTYTANKQLQVYGTMCLDAAGTGNGAAVQIYNCHGQTNQQWNVNSNGTISSVQSGRCLDVWSTSNGAQIQLYDCHGQPNQQFRLVSLA [ESM135]”, the melting temperature in series [1] is 61.3 C. The “purified protein yield per well” value in series [2] worked out at 109 µg. In addition, the PET hydrolysis in series [3] (setting [4]) was 6; in series [3] (setting [5]), 15; in series [3] (setting [6]), 14; in series [3] (setting [7]), 5; in series [3] (setting [8]), under 3; in series [3] (setting [9]), under 3. Also, the PET hydrolysis in series [3] (setting [10]) and in series [3] (setting [11]) was under 3 throughout.
On to “ADNPYQRGPDPTTASVAATRGTFATAEQTVGGGNGFAAGKIYYPIDTSQGTFGAIAIVPGYTATWAAEGAWMGPWLASFGFVVIGIDTNSRNDYDTARGTQLLAALDYLTQRSPVSGRVDAKRLSVMGHSMGGGGAVYAAIHRPSLWAAVGLAPFSPSQNLTTDKVPALLLAGQNDGTVSPSSVQSLYNGIPAGVEKGYLELAGAGHGFPTSSNSVMMRRVIPWLKIFVDHDSRYSKFLCPSLADSTGISGYRSTCPLDVPGGGDPGPGDQAVSLVGAGSGKCIDVPNQSQANGTALVVWTCNGGTNQRWTPTSAGELRVYNGTKCMDAGSGQPGTAVTINACGGGNSQKWTVNATGTITNAQAGACLDVSGGGTADNTPVIVWNCTGAANQVWTRQM [ESM103]”, for which the melting temperature in series [1] came out at 51.7 C. Besides, the “purified protein yield per well” value in series [2] came to 48.2 µg. Also, the PET hydrolysis in series [3] (setting [4]), in series [3] (setting [5]), in series [3] (setting [6]) and in series [3] (setting [7]) was under 3 throughout.
For the sequence “ADNPYQRGPDPTVASVAATNGPFATAQLNVPSGNGFNGGTIYYPTDTSLGTWGAVAIVPGYTARFANEEAWMGPRLASFGFVVIGVETNSTTDWDTARGTQLLAALDYLTQKSSVRDRVDASRLAVIGHSMGGGGVVYAASQRPSLKAAIGLAPYAPSGNLSNVKVPMLIQGGQNDTVVTPSYLDGLYPTLPSSTPGAYVQYSGADHLFWTKANNIELRTQIPWLKIFLDNDTRYTQFMCPTLKDTASVAKYSAKCSLIPSAGSTTAPTTQPATSAPATTSPTTQPPSQPG [TEP083]”, the melting temperature in series [1] amounted to 64.3 C. In addition, the “purified protein yield per well” value in series [2] is 356 µg. The PET hydrolysis was under 3 in series [3] (substrate: aFilm, 40 °C, pH 4.5); under 3 in series [3] (substrate: aFilm, 40 °C, pH 5.5); under 3 in series [3] (substrate: aFilm, 40 °C, pH 6.5); under 3 in series [3] (substrate: aFilm, 40 °C, pH 7.5); under 3 in series [3] (substrate: aFilm, 60 °C, pH 4.5); under 3 in series [3] (substrate: aFilm, 60 °C, pH 5.5). Besides, the PET hydrolysis in series [3] (substrate: aFilm, 60 °C, pH 6.5) is under 3; in series [3] (substrate: aFilm, 60 °C, pH 7.5), under 3; in series [3] (setting [4]), under 3; in series [3] (setting [5]) it was 3 ± 4.2; in series [3] (setting [6]), under 3; in series [3] (setting [7]) it was under 3. Besides, the PET hydrolysis in series [3] (setting [8]), in series [3] (setting [9]), in series [3] (setting [10]) and in series [3] (setting [11]) was under 3 each time.
“ADNPYQRGPDPTVASVAATRGTFATAQLTVPAGNGFGGGYIYYPTDTSRGTYGAVAIVPGYSALFANEEAWMGPWLASFGFVVIGVETITRNDGADARATQLLAALDYLTQRSQVRDRVDATRLAVMGHSAGGAGTILASERRPSLKAAVGLAPGTPGSLSLATNHVPMMIIGGQTDPTVTPSYLNNLYATMPAATPSDFVQIAGADHLFFTRANNTEMKVLIPWLKIFLDNDTRYTQFLCPSLADPQGISLYRSKCPYLPPGTTSPSPSASSTLSPSPSVSPTASPSPSVSLTPSPSNPATGCAATYRTVNSWPGGFQGEVTVSAGGAPVDGWTVGWTLGSGQSITQLWNGTLTTSGSTVTVRNPAYGGSIPAGGSVVFGFLGTGTPSVPALTCTSP [ESM031]” came in with a melting temperature in series [1] of 47.8 C. Besides, the “purified protein yield per well” value in series [2] is 66.9 µg. Besides, the PET hydrolysis in series [3] (setting [4]), in series [3] (setting [5]), in series [3] (setting [6]), in series [3] (setting [7]), in series [3] (setting [8]) and in series [3] (setting [9]) was under 3 in each case. The PET hydrolysis in series [3] (setting [10]) and in series [3] (setting [11]) was under 3 each time.
On to “ADNPYQRGPEPTTSSVAATRGTFATAEVSVSKGNGFGGGKIYYPTDTSKGTFGAIAVVPGYTATWAAEGAWMGPWLASFGFVVIGIDTNSRTDYDTARGTQLLAALDYLTQKSSVRSRVDVKRLSVMGHSMGGGGAMYAALHRPSLWAAVGNAPFSPSQNLKSDRVPTLLLAGQKDTTVTPSSVVGLYNGIPAATEKGYLELTGAAHNFPTRSNSVMMRKVVPWLKIFVDHDTRYGQFLCPSLKDTTGITSYRSTCPLTTAGQ [ESM078]”, for which the melting temperature in series [1] was 52 C. In addition, the “purified protein yield per well” value in series [2] is 68.8 µg. In addition, the PET hydrolysis in series [3] (setting [4]), in series [3] (setting [5]), in series [3] (setting [6]), in series [3] (setting [7]), in series [3] (setting [8]) and in series [3] (setting [9]) was under 3 throughout. In addition, the PET hydrolysis in series [3] (setting [10]) and in series [3] (setting [11]) was under 3 in each case.
